Assay results published in the supplement of paper PMC10567573.
± gives the standard deviation.

Assay: protein stability index of a GFP-peptide fusion (GPS, HEK-293T) (PSI 1-6); higher = more stable
[1] = treatment: DMSO, c terminus: a fixed tail appended
[2] = treatment: MLN4924 1 uM, 8 h, c terminus: a fixed tail appended
[3] = treatment: DMSO, c terminus: native
[4] = treatment: MLN4924 1 uM, 8 h, c terminus: native
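Further: 24-mer peptide tiles fused after GFP, lentivirally expressed, FACS-sorted into six equal bins by GFP/DsRed ratio, decoded by Illumina sequencing, PSI is the read-weighted mean bin number.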

| Sequence | protein stability index [1] | protein stability index [2] | protein stability index [3] | protein stability index [4] |
| --- | --- | --- | --- | --- |
| SPAAPYFLGSSFSPVRCGGPGDAS [WEE1] | 3.06 ± 0.3 | 3.17 ± 0.35 |  |  |
| SPHEMLQAVVLCSKKTFQITKQGD [USP39] | 3.34 ± 0.39 | 3.4 ± 0.28 |  |  |
| SPISSISPGLHSFTDHQRLMKRRK [KCNK9] | 4.7 ± 0.28 | 4.8 ± 0.16 |  |  |
| SPREGEELKPEDKDPRDPEESKEP [GNAS] | 5.78 ± 0.14 | 5.71 ± 0.26 |  |  |
| SPSSDLDTDAEGDDFELLDQSELS [RETREG3] | 5.56 ± 0.13 | 5.38 ± 0.12 |  |  |
| SQAQETTIIASNAEEAEILHSACG [TOR1AIP2] | 5.26 ± 0.29 | 5.21 ± 0.27 |  |  |
| SQNIAAETRAEDPPWFEGLESRFQ [DFFB] | 4.46 ± 0.13 | 4.49 ± 0.079 |  |  |
| SRLLLLEQELKTVTYSLLKRLKER [SMAD6] | 2.77 ± 0.34 | 2.55 ± 0.49 |  |  |
| SRLRFLNLGRMIDWVPVESLLRPL [ZER1] | 2.16 ± 0.13 | 2.24 ± 0.25 |  |  |
| SRLVAGEYLSFFDFSGLTLDGALR [PSD2] | 1.93 ± 0.094 | 2.3 ± 0.29 |  |  |
| SRSAAQDLDRMGVMTLPSDLRKHR [PPFIA4] | 4.54 ± 0.48 | 5.22 ± 0.1 |  |  |
| SRSTSFRGGMGSGGLATGIAGGLA [KRT18] | 3.3 ± 0.066 | 3.33 ± 0.37 |  |  |
| SRTCIGSSHSRGPLSWAPCGPIAG | 2.76 ± 0.18 | 2.84 ± 0.36 |  |  |
| SSASEGDEDLRRQMQDDEQKTRLL [PALM] | 5.51 ± 0.15 | 5.49 ± 0.19 |  |  |
| SSEKKRQSSADGSQPPKKKPKTTN [RBBP5] | 5.24 ± 0.37 | 5.28 ± 0.3 |  |  |
| SSKAHTSRFISANLPCNKFKNRLV [PTPRD] | 2.58 ± 0.35 | 2.59 ± 0.26 |  |  |
| SSLDLSYYPTSSSTSFMSSSSSSS [EMD] | 3.99 ± 0.06 | 3.84 ± 0.34 |  |  |
| SSLEEIVEKQGDTIEYLKRHNALL [TMEM192] | 3.82 ± 0.38 | 3.92 ± 0.16 |  |  |
| SSLPGHAAKTLPGGAGKGRTPSAF [EHMT1] | 3.98 ± 0.34 | 4.26 ± 0.32 |  |  |
| SSPMVQVDEKGEKVRPSHKRCIVI [LARP4] | 2.69 ± 0.16 | 2.63 ± 0.12 |  |  |
| SSRQTRPILKEQSSSSFSQGQSS [KRT16] |  |  | 5.3 ± 0.29 | 5.33 ± 0.25 |
| SSSPPGTPSPADAKAPPTACYAGA [CEBPB] | 5.14 ± 0.14 | 4.91 ± 0.29 |  |  |
| SSSTLMSSELETTSFFDSDEDDST [DVL3] | 5.54 ± 0.38 | 5.61 ± 0.14 |  |  |

| Sequence | protein stability index [1] | protein stability index [2] | protein stability index [3] | protein stability index [4] |
| --- | --- | --- | --- | --- |
| STPVCSQKVVVTTPLHRDKTPLHQ [MYBL2] | 3.92 ± 0.22 | 4.26 ± 0.24 |  |  |
| STVQILTEGFPPGGGNARATGMFL [ZFYVE21] | 2.16 ± 0.19 | 2.27 ± 0.35 |  |  |
| SVDLMLGLPAQQVGPWLGQLQELL [RSAD1] | 2.38 ± 0.1 | 2.38 ± 0.45 |  |  |
| SVKIIFKLPNDSRVERRFHFSQSL [FAF2] | 2.72 ± 0.67 | 2.76 ± 0.55 |  |  |
| SVPLSLCVSSHLALPAQHHWESW [CLPTM1] |  |  | 2.22 ± 0.1 | 2.33 ± 0.25 |
| SVVSYTLKDIHDDQDYLHSLGKAR [FLOT1] | 3.43 ± 0.3 | 3.54 ± 0.28 |  |  |
| SWQDLKDHMREAGDVCYADVYRDG [SRSF1] | 3.96 ± 0.68 | 4.21 ± 0.12 |  |  |
| SYNITVTATDGGSPPLSTEAHFML [PCDHGA10] | 2.03 ± 0.36 | 2.09 ± 0.4 |  |  |
| TARRSKRERREEDRAPAEQVPRSP [PWWP2B] | 5.38 ± 0.26 | 5.16 ± 0.45 |  |  |
| TCLTGVLGVGLGVEISRRLRHSNP [SPNS1] | 2.36 ± 0.22 | 2.09 ± 0.36 |  |  |
| TDRKLDDGDDKVFRRAPSWRKRFR [PPFIA4] | 4.38 ± 0.082 | 4.51 ± 0.47 |  |  |
| TFFLRTDAETPPRFTRTPVDQTGV [PTPRD] | 3.42 ± 0.16 | 3.28 ± 0.45 |  |  |
| TFHHPTYGSCYTVDGVWTAQRPGI [SCNN1D] | 2.61 ± 0.41 | 2.61 ± 0.29 |  |  |
| TGCVLGSSGKVLPKWGWEQLEVTC [POMT2] | 2.07 ± 0.36 | 2.25 ± 0.27 |  |  |
| TGERPYECNECGKAFSRSSGLFNH [ZSCAN9] | 2.48 ± 0.4 | 2.6 ± 0.37 |  |  |
| TGFRTISSLEEIVEKQGDTIEYLK [TMEM192] | 3.98 ± 0.41 | 4 ± 0.2 |  |  |
| TGSPARLSLRQTGSPGMIYSTRYG [KCNAB2] | 3.15 ± 0.45 | 3.12 ± 0.45 |  |  |
| THSSVVLQGFDQLRLEGLLCDVTL [KLHL13] | 2.43 ± 0.33 | 2.19 ± 0.19 |  |  |
| THTKEQILELVVLEQFVAILPKEL [ZNF24] | 3.04 ± 0.72 | 2.54 ± 0.66 |  |  |
| TIKRSSQTGEWQNIAIMTEEPELS [GFOD1] | 4.42 ± 0.33 | 4.26 ± 0.43 |  |  |
| TKETEQLRSQLQTLKQQHQQAVEQ [CCDC89] | 4.9 ± 0.19 | 4.87 ± 0.21 |  |  |
| TKNKSKHALRKKQLKRQKRDYIHS [FAM9B] | 3.71 ± 0.1 | 3.76 ± 0.1 |  |  |
| TKPSKSAALHIDLCKATSPADALQ [INTS4] | 3.91 ± 0.1 | 3.84 ± 0.29 |  |  |

| Sequence | protein stability index [1] | protein stability index [2] | protein stability index [3] | protein stability index [4] |
| --- | --- | --- | --- | --- |
| TLITAVELERFVNLHSLALDFCDF [FBXO33] | 2.47 ± 0.28 | 2.95 ± 1.3 |  |  |
| TLKKFKGDLAYRRQEYQKALQEYS [C8orf76] | 2.82 ± 0.29 | 2.79 ± 0.31 |  |  |
| TLSKPSPMPVSQECFETLRGDERI [CHGA] | 4.81 ± 0.26 | 4.75 ± 0.17 |  |  |
| TLYTAKKYAVPALEAHCVEFLTKH [BTBD1] | 2.7 ± 0.28 | 2.48 ± 0.12 |  |  |
| TNHIAPHARNGLSLKEEHRAYDLL [IKZF1] | 3.43 ± 0.28 | 3.64 ± 0.11 |  |  |
| TNSDVLAQQFALMAPLLFNGCRSG [DCAF4] | 2.23 ± 0.27 | 2.14 ± 0.3 |  |  |
| TPDQKYSMDNTPHTPTPFKNALEK [MYBL2] | 5 ± 0.2 | 5.22 ± 0.2 |  |  |
| TPGLGVVAVLLLFLVVREPPRGAV [SPNS1] | 2.69 ± 0.44 | 3.28 ± 0.6 |  |  |
| TPHMLLDLSDLLQVDSLRPASFPT [BRF1] | 2.28 ± 0.2 | 2.43 ± 0.2 |  |  |
| TPPSSRRVWSPPRVHKVEMGFGGG [ZBTB22] | 3.22 ± 0.4 | 3.33 ± 0.081 |  |  |
| TPSEEHMKNKNNVTEFILLGLTQN [OR4A15] | 3.26 ± 0.33 | 3.21 ± 0.21 |  |  |
| TQKLEEIKENAQDTMRQINKKGFW [TOR1AIP2] | 3.61 ± 0.16 | 4.08 ± 0.36 |  |  |
| TQMIREGGARSLWRGNGINVLKIA [SLC25A25] | 2.72 ± 0.25 | 2.77 ± 0.21 |  |  |
| TSFQWVTKWVDYSNKYGFGYQLSD [PLK2] | 2.06 ± 0.57 | 2.08 ± 0.31 |  |  |
| TSGVVFTGLMVSLLCLLHFSIVSV [RTN2] | 3 ± 0.53 | 3.07 ± 0.24 |  |  |
| TSPVLPSLIQLLGRNFILFIIFGT [HACD3] | 3.11 ± 0.48 | 2.98 ± 0.4 |  |  |
| TSRWSSMEIMEAYSVARQFNLTPP [KCNAB2] | 2.57 ± 0.22 | 2.84 ± 0.084 |  |  |
| TSTGSAASSGSNSSASSEQGLLGR [SPRY1] | 5.07 ± 0.28 | 5.17 ± 0.099 |  |  |
| TTPSTSSSSSFDPSVFDGLGDLLM [SNAP91] | 3.32 ± 0.21 | 3.48 ± 0.28 |  |  |
| TVIHDFLFSLKESPEKFQIEANFP [FAF2] | 2.14 ± 0.37 | 2.03 ± 0.19 |  |  |
| TVKTHLTSLKTKFPAEQYYRFHEH [TSN] | 2.32 ± 0.25 | 2.44 ± 0.36 |  |  |
| TVQGKKGVYMTDITPQGVAMRAGV [PDZK1] | 3.12 ± 0.079 | 3.32 ± 0.25 |  |  |
| TWESKNILAVSFAPLVQPSKNDNG [PCMTD1] | 3.3 ± 0.41 | 3.6 ± 0.51 |  |  |

| Sequence | protein stability index [1] | protein stability index [2] | protein stability index [3] | protein stability index [4] |
| --- | --- | --- | --- | --- |
| TYTYTSRPRALPCQRSRYRDSLTQ [RSPH3] | 3.18 ± 0.23 | 3.18 ± 0.14 |  |  |
| VAAELLNHLLESMPLREGSSFQDL [HES6] | 3.11 ± 0.69 | 3.35 ± 0.79 |  |  |
| VADRWYSEIKNYNFQQPGFTSGTG [GLIPR2] | 2.61 ± 0.097 | 2.93 ± 0.34 |  |  |
| VAREDVRESCPPLGLETLKITDFQ [CPXM2] | 3.96 ± 0.48 | 4.09 ± 0.33 |  |  |
| VASLPLDQSDEGSSSQKEESPSTL [MAGEA10] | 5.65 ± 0.14 | 5.64 ± 0.14 |  |  |
| VAVDFTWEEWQFLSPAQKDLYRDV [ZNF649] | 2.54 ± 0.73 | 2.64 ± 0.22 |  |  |
| VCISTKTQCSEEDQCKINKQIYNL [FEM1B] | 3.22 ± 0.19 | 3.33 ± 0.25 |  |  |
| VDAAYANKVELQAKVESMDQEIKF [KRT71] | 4.88 ± 0.41 | 4.87 ± 0.21 |  |  |
| VDEKGEKVRPSHKRCIVILREIPE [LARP4] | 2.9 ± 0.11 | 3.07 ± 0.037 |  |  |
| VDLDPTDGKLFPSDGFRDCKKGDP [ELF3] | 5.31 ± 0.1 | 5.2 ± 0.25 |  |  |
| VFDCLKDGMRNKETLEGREKAFIA [MED27] | 3.88 ± 0.28 | 3.91 ± 0.25 |  |  |
| VFRWLAYSYASTHRLMTDARRRVC [CPXM2] | 2.35 ± 0.32 | 2.54 ± 0.32 |  |  |
| VHSSPVSSPSVSGPRRLVSCLSSQ [SPACA3] | 3.38 ± 0.2 | 3.54 ± 0.18 |  |  |
| VITIKSESTFKNTEISFILGQEFD [FABP4] | 2.23 ± 0.53 | 2.4 ± 0.078 |  |  |
| VKQYLSTTLGPKLASQALTPPPGP [TFE3] | 2.92 ± 0.19 | 2.93 ± 0.3 |  |  |
| VKSHLLDYVMTTLLFSDKNVNSNL [TRIP13] | 3.08 ± 0.36 | 2.79 ± 0.32 |  |  |
| VLAIPRRLRVELECEEGELSFYDA [TRIM35] | 2.96 ± 0.2 | 3.08 ± 0.23 |  |  |
| VLEWGAEGVAGKSGLEKEVQRLTS [FCHSD1] | 4.1 ± 0.16 | 4.09 ± 0.22 |  |  |
| VLMWLLTYVGALFNGLTLLLMAVV [RTN1] | 2.51 ± 0.29 | 2.42 ± 0.13 |  |  |
| VLRSWYEKNKHIFPASRWEPYDPE [FAM50A] | 2.87 ± 0.078 | 3 ± 0.21 |  |  |
